Results as given in publication PMC3394726.

Target: chymotrypsin (bovine)

“scabies mite serpin SMSB3, wild type (from UniProt A0A131ZZL5 20-427) (natural protein)” showed a stoichiometry of inhibition (SI) from residual chymotrypsin activity at a 2-120:1 molar excess of SMSB3 of 12.9.
